Substrate in this data set: CC(C)O
As to the kind of experiment: purified protein. The settings on record: alcohol oxidation; cofactor F420.

B1: ADF (F420-dependent alcohol dehydrogenase) (Methanoculleus thermophilus) (protein)
chain: MKTQIGYFASLEQYRPMDALEQAIRAEKVGFDSVWVDDHFHPWYHDNAQSAQAWAWMGAALQATKKVFISTCITCPIMRYNPAIVAQTFATLRQMYPGRVGVAVGAGEAMNEVPVTGEWPSVPVRQDMTVEAVKVMRMLWESDKPVTFKGDYFTLDKAFLYTKPDDEVPLYFSGMGPKGAKLAGMYGDHLMTVAAAPSTLKNVTIPKFEEGAREAGKDPSKMEHAMLIWYSVDPDYDKAVEALRFWAGCLVPSMFKYKVYDPKEVQLHANLVHCDTIKENYMCATDAEEMIKEIERFKEAGINHFCLGNSSPDVNFGIDIFKEVIPAVRD
With B1, the Km turned out to be 1300 µM and the kcat was determined as 1.7 s⁻¹.

The term Km denotes the substrate concentration at which the rate is half of its maximum. One may read the kcat as the maximal rate divided by the concentration of active sites.

The record behind these values is publication PMC7820951.
